Assay results: patent publication US20230310712A1, “IMPLANTABLE CELL CHAMBER DEVICE AND USES THEREOF” (Takeda Pharmaceutical Company Limited, priority 2020, published 2023)

What was measured:
[1] = HPLC analysis of tacrolimus solvent-extracted from electrospun nPET-PBT; format: physicochemical; settings: HPLC after solvent extraction
Experimental: To reduce inflammation due to implantation trauma, the cell scaffold device can be loaded with tacrolimus (FK506). To assess cell seeding and biomolecule secretion on tacrolimus-treated materials, electrospun nPET-PBT was loaded with tacrolimus by dissolving 0% tacrolimus, 2% tacrolimus, or 4% tacrolimus to the polymer solution prior to electrospinning.
Incorporation of tacrolimus into nPET-PBT was assessed by solvent extracting the tacrolimus from the electrospun materials. The solvent extracted solution was then analyzed by high performance liquid chromatography (HPLC).

[2] = test system: vedolizumab/Luc-ARPE19 cells; assay: Cell growth and vedolizumab secretion on tacrolimus-loaded nPET-PBT; format: cell-based, human; settings: 200,000 cells/condition, three days, fluorescence imaging
Experimental: Cells were grown on tacrolimus-loaded nPET-PBT discs over three days, after which the surfaces of the nPET-PBT material were visually inspected by fluorescence imaging. […] Cells were further assessed three weeks post-seeding.

[3] = Plasma concentration of adalimumab or ustekinumab in implanted Nude mice (human IgG Fc ELISA); format: in vivo, mouse; settings: for day plateau was reached: nPET-PBT/PET/nPU cell chamber device; for average plasma concentration plateau: nPET-PBT/PET/nPU cell chamber device with antibody-expressing ARPE19 cells, subcutaneous
Experimental: To assess the ability to deliver biologics into the blood flow and the applicability of the devices to other biologics, secretion of adalimumab or ustekinumab from the nPET-PBT/PET/nPU cell chamber device described in Example 10 was assessed in vivo. The nPET-PBT/PET/nPU cell chamber device was seeded with ARPE19 cells stably expressing adalimumab or ustekinumab (see also Example 8) and subcutaneously implanted in Nude mice. Mice were assessed by blood collection over the course of >100 days to measure the plasma concentration of each antibody over time. Human IgG concentration in plasma was tested by an ELISA assay which detected the human IgG Fc region. […] (Day 1-Day 60: N=5, Day 61-Day 81: N=4, Day 82-92: N=3, Day 93-Day 108: N=2). Similarly, the average ustekinumab plasma concentration reached a plateau of approximately 60-110 μg/mL around Day 20 and maintained a steady-state over 80 days (N=5).

[4] = target: human TNFα (Homo sapiens, UniProt P01375); assay: Neutralization of human TNFα activity in L-929 cells (CCK-8 viability); format: cell-based; settings: antibody secreted by ARPE-19 cells in culture medium, human TNFα 1 ng/mL
Experimental: Adalimumab is an anti-TNFα antibody. To assay for adalimumab activity in the cell culture medium of adalimumab/ARPE-19 cells, L-929 cells were seeded into a 96 well cell culture plate at the density of 5,000 cells/well in DMEM supplemented with 10% FBS. After 20-hour incubation, the cells were sensitized with Actinomycin D (2 μg/mL) for two hours. Then the cells were incubated with culture medium comprising antibodies secreted by the ARPE-19 cells in the presence of human TNFα (1 ng/mL). After another 20-hour incubation the cells were evaluated for cell viability by a CCK-8 assay to test for neutralization of human TNFα activity.

Chain of human TNFα (P01375 77-233 limits assumed): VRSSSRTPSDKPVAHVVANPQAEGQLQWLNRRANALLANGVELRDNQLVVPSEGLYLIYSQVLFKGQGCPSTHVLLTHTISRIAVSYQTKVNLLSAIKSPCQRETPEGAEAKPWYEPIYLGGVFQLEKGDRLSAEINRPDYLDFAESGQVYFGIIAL

Compound	drug degradation following loading onto electrospun nPET-PBT [1]	effect on cell proliferation or growth [2]	day plateau was reached [3] [days]	average plasma concentration plateau [3] [µg/mL]	TNFα neutralizing activity [4]
C=CC[C@@H]1/C=C(\C)C[C@H](C)C[C@H](OC)[C@H]2O[C@@](O)(C(=O)C(=O)N3CCCC[C@H]3C(=O)O[C@H](/C(C)=C/[C@@H]3CC[C@@H](O)[C@H](OC)C3)[C@H](C)[C@@H](O)CC1=O)[C@H](C)C[C@@H]2OC [tacrolimus]	no drug degradation	no detectable effect on cell proliferation or growth			
adalimumab			~25	50 to 100	retained TNFα neutralizing activity
ustekinumab: anti-IL-12/IL-23 antibody			~20	60 to 110	
